{"source": "paper doi:10.1101/713933", "target": "portal protein of bacteriophage P23-45 (in situ, in the procapsid) (bacteriophage P23-45 (Thermus thermophilus phage))", "assay": "cryo-EM structure"}
{"substance": "portal protein of bacteriophage P23-45 (in situ, in the procapsid) (natural protein)", "values": [{"measurement": "stoichiometry N", "result": 12, "unit": "subunits"}]}
